Laboratory results: publication PMC11603075

Target: KDM4E (human)

Work on “H2a(1–20)R3me2a (from UniProt P0C0S8 2-21) (peptide)” yielded a KM of KDM4E catalysed demethylation, formaldehyde dehydrogenase (FDH) coupled assay of 5.18 µM.

“H3(1–21)R2me2a (from UniProt P68431 2-22) (peptide)” was tested, and the KM of KDM4E catalysed demethylation, formaldehyde dehydrogenase (FDH) coupled assay was 20.7 µM.
